Laboratory results taken from PMC9973331, “DNA Methylation and RNA-DNA Hybrids Regulate the Single-Molecule Localization of a DNA Methyltransferase on the Bacterial Nucleoid”.
Positions count from the first letter of the chain named.

What was measured:
DnmA[Y465A] = biological target: T1, DnmA[Y465A] (Bacillus subtilis, UniProt O31504 1-879, Y465A); experiment: EMSA; EMSA: 5x buffer 500 mM Tris-HCl pH 8, 1.25 M NaCl, 10% glycerol (1x: 100 mM Tris, 250 mM NaCl, 2% glycerol), 5 nM probe, 30 min at 25 C; 6% native PAGE in 1x TBE on ice; conditions: protein: recombinant; tags: His-SUMO tag (pE-SUMO) removed by SUMO protease; label: 5' IRDye700 on strand 1; 5' IRDye800 on strand 2; blunt
T1 sequence: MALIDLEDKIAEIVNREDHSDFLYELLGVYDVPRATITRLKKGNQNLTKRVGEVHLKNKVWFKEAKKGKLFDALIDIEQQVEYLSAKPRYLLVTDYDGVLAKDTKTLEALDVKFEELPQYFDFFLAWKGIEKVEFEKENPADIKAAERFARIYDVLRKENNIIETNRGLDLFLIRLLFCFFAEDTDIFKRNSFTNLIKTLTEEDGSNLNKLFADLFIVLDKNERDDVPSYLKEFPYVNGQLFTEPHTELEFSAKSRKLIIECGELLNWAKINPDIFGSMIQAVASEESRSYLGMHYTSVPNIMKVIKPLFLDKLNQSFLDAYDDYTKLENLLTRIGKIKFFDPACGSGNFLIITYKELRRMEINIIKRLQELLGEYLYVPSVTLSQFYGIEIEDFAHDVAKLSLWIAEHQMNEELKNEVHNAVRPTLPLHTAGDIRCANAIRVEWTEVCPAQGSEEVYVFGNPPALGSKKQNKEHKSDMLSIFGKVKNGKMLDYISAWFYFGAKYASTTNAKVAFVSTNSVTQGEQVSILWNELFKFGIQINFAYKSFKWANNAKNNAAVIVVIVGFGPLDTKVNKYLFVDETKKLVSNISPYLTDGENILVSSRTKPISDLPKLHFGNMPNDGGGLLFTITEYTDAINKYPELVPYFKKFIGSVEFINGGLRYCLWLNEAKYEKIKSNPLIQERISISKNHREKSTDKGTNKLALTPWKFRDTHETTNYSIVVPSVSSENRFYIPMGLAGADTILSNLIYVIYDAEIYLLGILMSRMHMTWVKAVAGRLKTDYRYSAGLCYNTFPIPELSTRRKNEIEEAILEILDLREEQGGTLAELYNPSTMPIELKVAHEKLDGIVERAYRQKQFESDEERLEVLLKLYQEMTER

DnmA[6AA*] = biological target: T2, DnmA[6AA*] (Bacillus subtilis, UniProt O31504 1-879, K470A;M620A;N748A;L780A;K781A;D783A); experiment: as above; conditions: protein: recombinant; tags: His-SUMO tag (pE-SUMO) removed by SUMO protease; label: 5' IRDye700 on strand 1; 5' IRDye800 on strand 2; blunt
T2 sequence: T1 sequence with A465Y, K470A, M620A, N748A, L780A, K781A, D783A

B1: unmethylated dsDNA (oTMN67/oTMN68) (dsDNA)
DNA 1: CAAAACAGGATATGAAATAGTATTGGACGAGAGCTTTTTGGTGGCTTATACTATAG
DNA 2: CTATAGTATAAGCCACCAAAAAGCTCTCGTCCAATACTATTTCATATCCTGTTTTG
apparent K (half saturation) (DnmA[Y465A]): 164 ± 26.8 nM | apparent K (half saturation) (DnmA[6AA*]): 458 ± 185 nM
